These results are taken from article PMC10998906 (NPJ Vaccines, 2024).

The test addresses HA (NL03, A/Netherlands/213/2003(H3N2)) (Influenza A virus …, strain). Put plainly: negative-stain EM. The following applies: both partners purified.

B1: CR9114 Fab (Fab, V domains shown)
VH: QVQLVQSGAEVKKPGSSVKVSCKSSGGTSNNYAISWVRQAPGQGLDWMGGISPIFGSTAYAQKFQGRVTISADIFSNTAYMELNSLTSEDTAVYFCARHGNYYYYSGMDVWGQGTTVTVSS
VL: QSALTQPPAVSGTPGQRVTISCSGSDSNIGRRSVNWYQQFPGTAPKLLIYSNDQRPSVVPDRFSGSKSGTSASLAISGLQSEDEAEYYCAAWDDSLKGAVFGGGTQLTVL
For B1, the “stoichiometry N” value worked out at 1 Fab per particle.
